Laboratory results as given in PMC8051604.

Assays:
[1] = target: CitCHS1 (citrus chalcone synthase 1), pGADT7 fusion (Citrus reticulata cv. Suavissima (Ougan))
[2] = target: CitCHS2 (citrus chalcone synthase 2), pGADT7 fusion (Citrus reticulata cv. Suavissima (Ougan))
[3] = target: CitERF33, split-YFP fusion (BiFC) (Citrus reticulata cv. Suavissima (Ougan))

CitCHIL1 (citrus type IV chalcone isomerase), pGBKT7 fusion (natural protein)
k cat value of CitCHS1 for malonyl-CoA with CitCHIL1 against without it (in vitro chalcone synthase assay, purified recombinant proteins) [1]: 1.86 fold
k cat value of CitCHS1 for p-coumaroyl-CoA with CitCHIL1 against without it (in vitro chalcone synthase assay, purified recombinant proteins) [1]: 1.81 fold
k cat value of CitCHS2 for malonyl-CoA with CitCHIL1 against without it (in vitro chalcone synthase assay, purified recombinant proteins) [2]: 1.33 fold
k cat value of CitCHS2 for p-coumaroyl-CoA with CitCHIL1 against without it (in vitro chalcone synthase assay, purified recombinant proteins) [2]: 1.43 fold

CitRAV1, split-YFP fusion (BiFC) (natural protein)
activation of the CitCHIL1 promoter by CitERF33 and CitRAV1 together (dual-luciferase assay in N. benthamiana leaves, LUC/REN against empty vector; 1.6-fold for CitERF33/EV or CitRAV1/EV) [3]: 10.6 fold
